Measured values as given in patent US20210238276A1 (INTEGRAL MOLECULAR, published 2021).
Changes are numbered by the printed parent chain.

T1: hsGLUT4 L260A (human, UniProt P14672 1-509)
T1 sequence: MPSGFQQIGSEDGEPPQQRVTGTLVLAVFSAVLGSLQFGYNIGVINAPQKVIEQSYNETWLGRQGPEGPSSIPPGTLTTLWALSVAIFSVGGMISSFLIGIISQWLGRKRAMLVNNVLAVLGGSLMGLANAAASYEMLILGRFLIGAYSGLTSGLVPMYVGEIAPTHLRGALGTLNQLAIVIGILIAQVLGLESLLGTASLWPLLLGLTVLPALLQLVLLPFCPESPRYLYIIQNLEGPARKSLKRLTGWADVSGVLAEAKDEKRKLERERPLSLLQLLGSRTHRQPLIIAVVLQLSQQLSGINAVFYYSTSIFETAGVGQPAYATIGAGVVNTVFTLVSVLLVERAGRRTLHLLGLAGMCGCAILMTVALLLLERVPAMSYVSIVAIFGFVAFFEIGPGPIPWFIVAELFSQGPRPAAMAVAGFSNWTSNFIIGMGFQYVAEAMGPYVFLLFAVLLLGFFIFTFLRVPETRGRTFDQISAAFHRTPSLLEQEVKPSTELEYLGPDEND

T2: hsGLUT4 N508A (human, UniProt P14672 1-509)
T2 sequence: T1 sequence with A260L, N508A

T3: hsGLUT4 L296A (human, UniProt P14672 1-509)
T3 sequence: T1 sequence with A260L, L296A

T4: hsGLUT4 L247A (human, UniProt P14672 1-509)
T4 sequence: T1 sequence with L247A, A260L

B1: AB111 (Fc fusion)
scFv: ALTQPSSVSANPGETVKITCSGSGSWYGWFQQKSPGSAPVTVIYSNDKRPSDIPSRFSGSKSGSTSTLTITGVQVEDEAVYYCGNWDIFGAGTTLTVLGQSSRSSGGGGSSGGGGSAVTLDESGGGLQTPGGALSLVCKASGFTFSSHGMGWVRQAPGKGLEWVASISTGRYTFYAPAVKGRATISRDNGQSTVRLQLNNLRAEDTATYYCTKCAGLNGCGGGEIDAWGHGTEVIVSS
notes: Bivalent scFv-Fc; also called MAb AB111; not shown: Fc fragment of human IgG1, cloned in frame with the scFv
B2: AB101 (scFv)
scFv: ALTQPSSVSANPGETVKITCSGSSNSYGWYQQKSPGSAPVTVIYYNDKRPSDIPSRFSGSKSDSTHTLTITGVRAEDEAVYFCGSYDSTYVGIFGAGTTLTVLGQSSRSSGGGGSSGGGGSAVTLDESGGGLQTPGGTLSLVCKASGFTFSSNAMGWVRQAPGKGLEWVAGISSDGRYTKYGSAVKGRATISRDNGQSTVRLQLNNLRAEDTGTYFCAKAFGNNYRRIYAGQIDAWGHGTEVIVSS
notes: Chicken-derived clone used as a control; the four lead clones were tested as scFv-human IgG1 Fc; also called MAb AB101
B3: AB108 (Fc fusion)
scFv: ALTQPSSVSANLGGTVKITCSGSSGSYGWYQQKAPGSAPVTLIYRNDKRPSDIPSRFSGSESGSTGTLTITGVQAEDEAVYFCGGYDSSAGYAAFGAGTTLTVLGQSSRSSGGGGSSGGGGSAVTLDESGGGLQTPGGALSLVCKASGFTFSSHGMGWVRQAPGKGLEWVGSISTGRYTFYAPAVKGRATISRDNGQSTLRLQLNNLRAEDTGTYYCTKCAGLNGCGGGEIDAWGHGTEVIVSS
notes: Bivalent scFv-Fc; also called MAb AB108; not shown: Fc fragment of human IgG1, cloned in frame with the scFv

Tests used:
Assay in all cases: flow cytometry, alanine-scan library in HEK-293T
hsGLUT4 L260A = target: T1, hsGLUT4 L260A
How it was run: (§1)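 HEK-293T cells expressing individual GLUT4 alanine mutants were stained 48 h post-transfection with anti-GLUT4 scFv MAbs (2 μg/ml), then biotinylated secondary and streptavidin-PerCP, and read by high-throughput flow cytometry. Where used, cytochalasin B (10 uM final) was given for 30 min before and during primary antibody staining.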

hsGLUT4 N508A = target: T2, hsGLUT4 N508A
How it was run: as §1

hsGLUT4 L296A = target: T3, hsGLUT4 L296A
How it was run: as §1

hsGLUT4 L247A = target: T4, hsGLUT4 L247A
How it was run: as §1

| Molecule | % of binding to wild type GLUT4 (hsGLUT4 L260A) [%] | % of binding to wild type GLUT4 (hsGLUT4 N508A) [%] | % of binding to wild type GLUT4 (hsGLUT4 L296A) [%] | % of binding to wild type GLUT4 (hsGLUT4 L247A) [%] |
| --- | --- | --- | --- | --- |
| 1F8 (antibody) | 98 | 21 | 105 | 95 |
| B1 | 130 | 193 | 144 | 99 |
| B2 | 112 | 7 | 90 | 111 |
| B3 | 108 | 89 | 72 | 110 |
